Patent CN110563841A

Key:
[1] = target: 重组Grb2蛋白 (recombinant Grb2 protein) (UniProt P62993); assay: ELISA, recombinant Grb2 coated, antibody 100 ng/mL, goat anti-mouse IgG Fc-HRP secondary (does not detect human IgG)
[2] = target: 重组Grb2蛋白 (recombinant Grb2 protein) (UniProt P62993); assay: ELISA, recombinant Grb2 coated, antibody 100 ng/mL, goat anti-human IgG Fc-HRP secondary

OD490 [1]: 0.073
OD490 [2]: 0.073
Substance: 人IgG1 (irrelevant human IgG1 control antibody)
